Experiments:
Experiment in all cases: pull-down; GST-tagged HsIFT172 constructs (10 μM; 5 μM in Figure 4C) immobilised on GSH beads; prey 20 μM UbcH5a~Ub or 15-25 μM tetra-ubiquitin in 50 mM Tris pH 7.5, 100 mM NaCl, 1 mM DTT, 4 °C, 2 hr; eluted with glutathione; Coomassie and anti-ubiquitin western blot
Details in all cases: both partners purified
[1] = molecular target: T1, UbcH5a_(C85S)~Ub conjugate, UbcH5a F62A (human, UniProt P51668 1-147; P0CG48 1-76, C85S | F62A, oxyester link from Ser85 (C85S) to ubiquitin | oxyester-linked to UbcH5a Ser85)
T1 construct: Homo sapiens UbcH5a, full length, C85S and F62A; Homo sapiens ubiquitin; source: in vitro charging reaction of proteins purified from E. coli, purified

[2] = molecular target: T2, UbcH5a_(C85S)~Ub conjugate (WT) (human, UniProt P51668 1-147; P0CG48 1-76, C85S, oxyester link from Ser85 (C85S) to ubiquitin | oxyester-linked to UbcH5a Ser85)
T2 construct: Homo sapiens UbcH5a (E2 enzyme), full length, active site cysteine mutated to serine; Homo sapiens ubiquitin; Protocol adapted from Middleton et al., 2014; also called WT UbcH5a~Ub conjugate; E2~Ub conjugate

[3] = molecular target: T3, UbcH5a_(C85S)~Ub conjugate, UbcH5a A96D (human, UniProt P51668 1-147; P0CG48 1-76, C85S | A96D, oxyester link from Ser85 (C85S) to ubiquitin | oxyester-linked to UbcH5a Ser85)
T3 construct: Homo sapiens UbcH5a, full length, C85S and A96D; Homo sapiens ubiquitin; source: in vitro charging reaction of proteins purified from E. coli, purified

Measured: binding result

B1: GST-tagged HsIFT172C2 (His-GST-TEV-HsIFT172_(1470-C)) (domain or fragment, human, UniProt Q9UG01 1470-1749, looked up)
chain: GAPANPQNFNIYKRIFTDMVSSPGTNCAEAYHSWADLRDVLFNLCENLVKSSEANSPAHEEFKTMLLIAHYYATRSAAQSVKQLETVAARLSVSLLRHTQLLPVDKAFYEAGIAAKAVGWDNMAFIFLNRFLDLTDAIEEGTLDGLDHSDFQDTDIPFEVPLPAKQHVPEAEREEVRDWVLTVSMDQRLEQVLPRDERGAYEASLVAASTGVRALPCLITGYPILRNKIEFKRPGKAANKDNWNKFLMAIKTSHSPVCQDVLKFISQWCGGLPSTSFSFQ
notes: also called GST-HsIFT172C2; source: E. coli BL21 (DE3), purified (Ni-NTA, Q anion exchange, SEC); not shown: GST, N-terminal, kept
binds: all assays above

From publication PMC13290226, “Intraflagellar transport protein IFT172 contains a C-terminal ubiquitin-binding U-box-like domain involved in ciliary signaling” (eLife, 2026)
